Paper PMC5814829
Changes are numbered by the printed parent chain.

Columns and labels:
Experiment in all cases: fluorescence anisotropy
ScPif1p K595A = target: T1, ScPif1p K595A (Saccharomyces cerevisiae, UniProt P07271 237-780, K595A)
T1 sequence: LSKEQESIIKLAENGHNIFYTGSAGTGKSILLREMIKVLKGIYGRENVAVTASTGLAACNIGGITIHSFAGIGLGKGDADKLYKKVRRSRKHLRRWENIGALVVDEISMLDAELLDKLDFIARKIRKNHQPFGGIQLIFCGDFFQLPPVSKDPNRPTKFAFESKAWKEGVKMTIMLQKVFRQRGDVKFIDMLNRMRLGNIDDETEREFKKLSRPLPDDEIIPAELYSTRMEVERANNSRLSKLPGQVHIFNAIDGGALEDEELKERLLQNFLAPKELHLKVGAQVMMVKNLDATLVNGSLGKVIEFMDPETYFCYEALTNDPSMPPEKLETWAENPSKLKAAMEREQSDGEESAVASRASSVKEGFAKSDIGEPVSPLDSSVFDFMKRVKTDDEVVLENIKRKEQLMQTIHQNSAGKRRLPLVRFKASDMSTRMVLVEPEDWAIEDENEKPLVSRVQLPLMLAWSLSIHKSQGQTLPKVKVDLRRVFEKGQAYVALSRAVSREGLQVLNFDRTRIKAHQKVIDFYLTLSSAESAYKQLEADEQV

ScPif1p D677T = target: T2, ScPif1p D677T (Saccharomyces cerevisiae, UniProt P07271 237-780, D677T)
T2 sequence: T1 sequence with A359K, D441T

ScPif1p (237-780) = target: T3, ScPif1p (237-780) (Saccharomyces cerevisiae, UniProt P07271 237-780)
T3 sequence: T1 sequence with A359K

Binder: GTGTGTGTGGTG (ssDNA) [GR12]
- Kd (ScPif1p K595A): 0.0102 ± 0.0018 µM
- Kd (ScPif1p D677T): 0.0105 ± 0.0026 µM
- Kd (ScPif1p (237-780)): 0.0061 µM
